The term Kd denotes the free concentration of one partner at which half of the binding sites on the other are occupied at equilibrium, for simple one-to-one binding. A lower Kd goes with higher affinity. Broadly, the koff is a measure of how fast the partners let go of each other. Higher therefore signals a short-lived complex. As a reminder, the kon is the rate constant with which the complex forms. A lower kon goes with slower complex formation.

The target in assay [1] is T1, human IGF2^1-67 (mature insulin-like growth factor 2) (human, UniProt P01344 25-91, biotinylated (site not stated) where immobilised on the chip (Tables 1-4)).
T1 construct: mature; also called mature IGF2; biotinylated IGF2
T1 sequence (P01344 25-91): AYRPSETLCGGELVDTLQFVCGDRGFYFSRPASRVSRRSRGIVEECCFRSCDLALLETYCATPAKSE
The assay can be described thus: SPR steady state, biotin-IGF2 on chip, pH 7.4. In a few lines:
(§1)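 Biacore SPR at 25 °C in HBS-EP pH 7.4 or MES-EP pH 6.5, flow 40 μL/min; ~50 RU biotin-IGF2:biotin-ubiquitin (1:8) on streptavidin chip, or Fc-domain 11 captured via anti-human IgG. Kinetics fitted to 1:1 model; steady-state affinity from response averaged 5 s before injection end.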

The target in assay [2] is T1, human IGF2^1-67 (mature insulin-like …). The assay can be described thus: SPR (Biacore T200, 25 °C, HBS-EP pH 7.4); ΔΔG° = RT ln(KD mutant / KD domain 11^AB3); box AB. The procedure:
(§2) Boxes show the change in the binding free energy contribution, ΔΔGº, for the indicated mutants. The loop/s that contains the mutation/s is indicated in each box. The ΔΔGº values were calculated as ΔΔGº=ΔGº domain 11^mutant−ΔGº domain 11^AB3=RTln(KD domain 11^mutant/KD domain 11^AB3). Additive and non-additive contributions of single point mutations are shown when calculated with a box solid line and dashed line, respectively.
(§3) Final kinetic analysis of mutants by SPR was conducted using a Biacore T200 biosensor at 25° C. in either HBS-EP (10 mM HEPES pH 7.4, 150 mM NaCl, 3 mM EDTA, and 0.005% (v/v) surfactant P20) or MES-EP (20 mM MES pH 6.5, 150 mM NaCl, 3 mM EDTA, and 0.005% (v/v) surfactant P20) at a flow-rate of 40 μL min⁻¹. […] This interaction was also analysed by immobilizing the Fc-domain 11^AB5 and Fc-domain 11^AB5-RHH (or Fc-domain 11^I1572A as control) by Human Antibody Capture (monoclonal mouse anti-human IgG antibody immobilised on a CM5 chip by amine coupling, GE Healthcare) with and without human IgG1 Fc fragment (Bethyl Laboratories, UK) in the control flow cell. […] Steady state affinities were determined using the kinetic data, taking the response average at 5 seconds before injection end and for 5 seconds average.
(In general: In SPR one partner is held on a chip, and binding of the other changes the refractive index at the surface.)

The target is the same in assay [3]. The assay can be described thus: SPR kinetic, biotin-IGF2 on chip, pH 7.4. An outline of the steps: (§4)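 Biotinylated IGF2 captured on streptavidin chip; recombinant M6P/IGF2R domain 11 mutants (E. coli or P. pastoris) injected at 25° C in HBS-EP, pH 7.4, 40 μL min⁻¹. Kinetics fitted to 1:1 model; steady-state KD from 5 s response averages before injection end; 2-5 repeats on two chips.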

The target is the same in assay [4]. Kind of assay: SPR kinetic, biotin-IGF2 on chip, pH 6.5. The procedure:
Measurements were carried out at 25° C. in MES-EP buffer, 20 mM MES pH 6.5, 150 mM NaCl, 3 mM EDTA, and 0.005% (v/v) surfactant P20). Data for KD expressed as mean of each experiment, and means of kon and koff are shown.
(§5) Final kinetic analysis of mutants by SPR was conducted using a Biacore T200 biosensor at 25° C. in either HBS-EP (10 mM HEPES pH 7.4, 150 mM NaCl, 3 mM EDTA, and 0.005% (v/v) surfactant P20) or MES-EP (20 mM MES pH 6.5, 150 mM NaCl, 3 mM EDTA, and 0.005% (v/v) surfactant P20) at a flow-rate of 40 μL min⁻¹. […] For the analysis of the Fc-domain 11^AB5 interaction, approximately 50 RU of a biotinylated IGF2:biotinylated ubiquitin mixture (1:8 proportion) was immobilized on the CM5-streptavidin chip. This interaction was also analysed by immobilizing the Fc-domain 11^AB5 and Fc-domain 11^AB5-RHH (or Fc-domain 11^I1572A as control) by Human Antibody Capture (monoclonal mouse anti-human IgG antibody immobilised on a CM5 chip by amine coupling, GE Healthcare) with and without human IgG1 Fc fragment (Bethyl Laboratories, UK) in the control flow cell. […] T200 BiaEvaluation software (GE Healthcare) was used to fit the resulting curves according to a 1:1 binding model. Steady state affinities were determined using the kinetic data, taking the response average at 5 seconds before injection end and for 5 seconds average. Thermodynamic data was performed across the temperature range of 10° C. to 30° C., van't Hoff and Erying plots generated and ΔH, −TΔS and ΔG values determined as previously described.

Assay [5] has the same target. The assay can be described thus: SPR steady state, biotin-IGF2 on chip, pH 7.4. In a few lines:
as §4
The source holds these as a separate data set.

Assay [6] shares this target. Kind of assay: SPR kinetic, biotin-IGF2 on chip, pH 7.4. In a few lines:
as §1
The source holds these as a separate data set.

For assay [7] the target is unchanged. The assay can be described thus: SPR.
The target is the same in assay [8]. Kind of assay: SPR, pH 7.4; pH 7.4. The procedure:
as §5

Assay [9] has the same target. The assay can be described thus: SPR (Biacore T200, 25 °C, HBS-EP pH 7.4); ΔΔG° = RT ln(KD mutant / KD domain 11^AB3); box AB+CD+FG+FG. The procedure:
as §2, §3

For assay [10] the target is unchanged. Kind of assay: SPR, biotin-IGF2 on chip, lower pH (6.5); reference domain 11^WT. The procedure: as §5

B1: IGF2R domain 11^AB5 (receptor)
chain: MKSNEHDDCQVTNPSTGHLFDLSSLSGRAGFTAAYAKGWGVYMSICGENENCPPGVGACFGQTRISVGKANKRLRYVDQVLQLVYKDGSPCPSKSGLSYKSVISFVCRPEAGPTNRPMLISLDKQTCTLFFSWHTPLACEQATECSV
notes: His6-tagged soluble domain 11; also called 1542YAKGWG1547
For B1, the Kd in assay [1] worked out at 6.44 nM; in [3] it was 5.07 nM; in [4] it was 4.38 nM; in [5], 6.44 nM; in assay [6], 5.07 nM. The ΔΔG in [2] was -0.65 kcal/mol. Also, the figures for the koff in [3], in assay [4] and in [6] were 0.0208 s⁻¹, 0.018 s⁻¹ and 0.0208 s⁻¹, respectively. In addition, the kon was 4.21e+06 M⁻¹ s⁻¹ in assay [3], 4.17e+06 M⁻¹ s⁻¹ in assay [4] and 4.21e+06 M⁻¹ s⁻¹ in [6]. Further, in assay [7], the “fold higher affinity than domain 11^WT” value was found to be 10 fold.

B2: domain 11^AB3 Q1569R P1597H S1602H G1603K (receptor)
chain: MKSNEHDDCQVTNPSTGHLFDLSSLSGRAGFTAAYSKSGVVYMSICGENENCPPGVGACFGRTRISVGKANKRLRYVDQVLQLVYKDGSHCPSKHKLSYKSVISFVCRPEAGPTNRPMLISLDKQTCTLFFSWHTPLACEQATECSV
notes: See m5
Take B2: the Kd in assay [1] amounted to 1.31 nM; in [4] it was 0.43 nM; in assay [6], 0.62 nM; in [8] it was 0.78 nM. Besides, the koff came to 0.0087 s⁻¹ in [4] and 0.0108 s⁻¹ in [6]. For the same molecule, the kon in assay [4] is 2.43e+07 M⁻¹ s⁻¹; in assay [6], 1.75e+07 M⁻¹ s⁻¹. In addition, the ΔΔG in assay [9] was -1.9 kcal/mol. In addition, in [10], the “fold improved overall affinity compared to domain 11^WT” value worked out at 100 fold.

Values taken from US20180237497A1 (CANCER RESEARCH TECHNOLOGY, published 2018).
